Source: US20240384250A1, “FIBROBLAST GROWTH FACTOR 23 MODULATING COMPOUNDS” (THE UAB RESEARCH FOUNDATION, priority 2021, published 2024)
“Also recorded” adds a separate entry of the source.

Test system: neonatal rat ventricular myocytes
Assay: Hypertrophic growth of isolated neonatal rat ventricular myocytes (cell area)
Type: cell-based
Protocol: Neonatal rat ventricular myocytes (NRVMs) were isolated using a kit according to the manufacturer's protocol (LK003300, Worthington Biochemical Corporation), as done previously.^13,16,17 Briefly, hearts from 1- to 3-day-old Sprague Dawley rats (Envigo) were harvested and minced in calcium- and magnesium-free Hanks balanced salt solution and the tissue was digested with 50 μg/ml of trypsin at 4° C. for 20 to 24 hours. Soybean trypsin inhibitor in Hanks balanced salt solution was added, and the tissue was further digested with collagenase (in Leibovitz L-15 medium) under slow rotation (0.14 g) at 37° C. for 45 minutes. Cells were broken up by triturating the suspension 20× with a standard 10-ml plastic serological pipette. Cells were then filtered through a cell strainer (70 μm, BD Falcon). Cells were incubated at room temperature for 20 minutes and spun at 100 g for 5 minutes. The cell pellet was resuspended in plating medium (DMEM Base [10013CV, Corning], 17% M199 [12350039, Gibco], 15% FBS [26140079, Gibco], I× Pen/Strep [15140122, Gibco]). For cell tracings, NRVMs were grown in 24-well plates on glass coverslips (CLS1760012, Chemglass). Slips were precoated with laminin (23017015, Invitrogen) at 10 μg/ml for 1 hour at 37° C. dissolved in PBS. Laminin was aspirated, and cells and medium were added. Cells were counted by a hemocytometer and plated at 4×10^5 cells per well. […] After 48 hours, maintenance medium was replaced, and after another 48 hours, cells were ready for treatment, giving a total of 72 hours of plating medium and 96 hours of maintenance medium before treatment. […]
The medium was aspirated, and cultured NRVMs were fixed in 2% paraformaldehyde (P-6148, Sigma-Aldrich) and 4% sucrose dissolved in PBS for 5 minutes followed by permeabilization with 1% Triton X-100 dissolved in PBS for 10 minutes. […] The cross-sectional area of myocytes was measured on the basis of α-actinin-positive staining using ImageJ software (v1.53, National Institutes of Health). […]

B1: FGF23: recombinant fibroblast growth factor 23 protein from R&D Systems (protein)
chain: YPDTSPLLGSNWGSLTHLYTATARTSYHLQIHRDGHVDGTPHQTIYSALMITSEDAGSVVITGAMTRRFLCMDLHGNIFGSLHFSPENCKFRQWTLENGYDVYLSQKHHYLVSLGRAKRIFQPGTNPPPFSQFLARRNEVPLLHFYTVRPRRHTRSAEDPPERDPLNVLKPRPRATPVPVSCSRELPSAEEGGPAASDPLGVLRRGRGDARGGAGGADRCRPFPRFV
In the case of B1, the cell area (FGF23 alone, 48 hours) is reported as “induced hypertrophic growth; also recorded: increase in cell area; also recorded: stepwise elevation in the cell area”.

B2: sKL: recombinant soluble α-klotho ectodomain, mouse aa 35-982 and human aa 34-981, FLAG- or Strep/His-tagged, purified from HEK293 cells (protein)
chain: EPGDGAQTWARFSRPPAPEAAGLFQGTFPDGFLWAVGSAAYQTEGGWQQHGKGASIWDTFTHHPLAPPGDSRNASLPLGAPSPLQPATGDVASDSYNNVFRDTEALRELGVTHYRFSISWARVLPNGSAGVPNREGLRYYRRLLERLRELGVQPVVTLYHWDLPQRLQDAYGGWANRALADHFRDYAELCFRHFGGQVKYWITIDNPYVVAWHGYATGRLAPGIRGSPRLGYLVAHNLLLAHAKVWHLYNTSFRPTQGGQVSIALSSHWINPRRMTDHSIKECQKSLDFVLGWFAKPVFIDGDYPESMKNNLSSILPDFTESEKKFIKGTADFFALCFGPTLSFQLLDPHMKFRQLESPNLRQLLSWIDLEFNHPQIFIVENGWFVSGTTKRDDAKYMYYLKKFIMETLKAIKLDGVDVIGYTAWSLMDGFEWHRGYSIRRGLFYVDFLSQDKMLLPKSSALFYQKLIEKNGFPPLPENQPLEGTFPCDFAWGVVDNYIQVDTTLSQFTDLNVYLWDVHHSKRLIKVDGVVTKKRKSYCVDFAAIQPQIALLQEMHVTHFRFSLDWALILPLGNQSQVNHTILQYYRCMASELVRVNITPVVALWQPMAPNQGLPRLLARQGAWENPYTALAFAEYARLCFQELGHHVKLWITMNEPYTRNMTYSAGHNLLKAHALAWHVYNEKFRHAQNGKISIALQADWIEPACPFSQKDKEVAERVLEFDIGWLAEPIFGSGDYPWVMRDWLNQRNNFLLPYFTEDEKKLIQGTFDFLALSHYTTILVDSEKEDPIKYNDYLEVQEMTDITWLNSPSQVAVVPWGLRKVLNWLKFKYGDLPMYIISNGIDDGLHAEDDQLRVYYMQNYINEALKAHILDGINLCGYFAYSFNDRTAPRFGLYRYAADQFEPKASMKHYRKIIDSNGFPGPETLERFCPEEFTVCTECSFFHTRKS
modifications: left off: small tags and cut ends
notes: recombinant soluble α-klotho ectodomain, mouse aa 35-982 and human aa 34-981, FLAG- or Strep/His-tagged, purified from HEK293 cells
In the case of B2, the “FGF23-induced hypertrophy (increase in cell area)” value (cotreatment with FGF23 25 ng/ml, 48 hours, sKL 100 ng/ml, anti-FGF23 1 μg/ml) is reported as “FGF23 did not induce hypertrophy; also recorded: blocked this effect” and the “NRVM area, treatment by itself” value (without FGF23, 48 hours) is reported as “no effect”.
